Source: PMC3717276, “Optimization and validation of mitochondria-based functional assay as a useful tool to identify BH3-like molecules selectively targeting anti-apoptotic Bcl-2 proteins” (BMC Biotechnology, 2013)

Columns and labels:
[1] = target: Human Bcl-2 protein (isoform 2 construct), N-terminal 6xHis tagged recombinant protein (human); experiment: SPR; competitive solution binding: protein (20 nM) pre-incubated with tested BH3 peptide for at least 30 min, injected over immobilised biotin-Bim BH3 peptide; response at 30 s of dissociation
[2] = target: Human Bcl-2 protein (isoform 2 construct), N-terminal 6xHis tagged recombinant protein (human); experiment: fluorescence polarisation; competition: Mcl-1 (20 nM) or Bcl-2 (40 nM) pre-incubated with FAM-Bid (2 nM and 2.5 nM), tested BH3 peptide added, 2-3 h; 100 mM potassium phosphate, pH 7.5, 100 ug/ml bovine gamma globulin, 0.02% sodium azide; Ki calculated from IC50

Row | IC50 [1] | Ki [2] | Binder
1 | 4.37 nM | 7.1 nM | NLWAAQRYGRELRRMSDEFVDSFKKG [Bad BH3 peptide (residues 103-128)]
2 | > 30000 nM | > 10000 nM | PAELEVECATQLRRFGDKLNFRQKLL [Noxa BH3 peptide (residues 18-43)]
